Literature values, collected in publication PMC2799686.

Target: DnaK (Escherichia coli) (UniProt P0A6Y8)
Assay: competition

Chain of pyrrhocoricin (P37362 whole entry): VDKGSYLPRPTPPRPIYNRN
Chain of DnaK (Escherichia coli) (P0A6Y8 2-638): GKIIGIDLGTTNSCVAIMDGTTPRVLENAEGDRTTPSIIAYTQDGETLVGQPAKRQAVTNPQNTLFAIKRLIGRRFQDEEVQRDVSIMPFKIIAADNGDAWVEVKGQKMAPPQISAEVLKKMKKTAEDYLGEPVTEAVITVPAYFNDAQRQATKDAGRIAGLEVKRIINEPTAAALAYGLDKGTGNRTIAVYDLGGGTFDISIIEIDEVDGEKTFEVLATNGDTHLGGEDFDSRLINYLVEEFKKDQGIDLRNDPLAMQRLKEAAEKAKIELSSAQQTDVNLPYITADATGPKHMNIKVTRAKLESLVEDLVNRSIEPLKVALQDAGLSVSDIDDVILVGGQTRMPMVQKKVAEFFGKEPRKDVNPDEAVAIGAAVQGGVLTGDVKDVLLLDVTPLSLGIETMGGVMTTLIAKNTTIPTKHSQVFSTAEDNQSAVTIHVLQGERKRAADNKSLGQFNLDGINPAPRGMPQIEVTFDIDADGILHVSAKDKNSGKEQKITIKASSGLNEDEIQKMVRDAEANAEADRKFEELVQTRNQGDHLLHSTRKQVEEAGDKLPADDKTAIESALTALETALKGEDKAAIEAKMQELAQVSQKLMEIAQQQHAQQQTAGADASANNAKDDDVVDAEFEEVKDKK

Substance: pyrrhocoricin (from UniProt P37362)
- Kd: 50 µM
